Target: AAVhum.8 capsid (adeno-associated virus 8 (nonhuman primate isolate)) (UniProt Q8JQF8)
Experiment: cryo-EM structure; purified AAVhum.8 vectors vitrified on Quantifoil grids; Titan Krios 300 kV; capsid reconstructed in cisTEM; 60-mer VP3 model refined against the map

**Q.** How did the stoichiometry N turn out when “AAVhum.8 capsid (from UniProt Q8JQF8 218-738) (complex)” was run?
**A.** 60

From paper PMC8428401
